Reference: the supplement of paper PMC9112550, “Optimization of the antimicrobial peptide Bac7 by deep mutational scanning” (BMC Biology, 2022)

Tested on: Escherichia coli TOP10
Experiment: shrunken log2 fold change of peptide-encoding DNA abundance (4.5 h post-induction vs induction); higher = less antimicrobial activity (less host growth inhibition)
Details: time post-induction: 4.5 h; library: site-saturation at positions 5, 18, 19, 20
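Further: peptides expressed intracellularly from a pBAD plasmid library in pooled LB shake-flask culture, induced with 0.3% L-arabinose, DNA abundance read by NGS, three biological replicates, DESeq2 with apeglm shrinkage.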

| Sequence | shrunken log2 fold change |
| --- | --- |
| RRIRWRPPRLPRPRPRPNDVPRP | -0.0909 |
| RRIRWRPPRLPRPRPRPNECPRP | -0.437 |
| RRIRWRPPRLPRPRPRPNFDPRP | -0.0228 |
| RRIRWRPPRLPRPRPRPNFIPRP | -0.174 |
| RRIRWRPPRLPRPRPRPNGKPRP | 0.123 |
| RRIRWRPPRLPRPRPRPNHNPRP | -0.681 |
| RRIRWRPPRLPRPRPRPNKAPRP | -0.00104 |
| RRIRWRPPRLPRPRPRPNLGPRP | 0.0106 |
| RRIRWRPPRLPRPRPRPNMLPRP | 0.0876 |
| RRIRWRPPRLPRPRPRPNNQPRP | -0.494 |
| RRIRWRPPRLPRPRPRPNPLPRP | 3.58e-05 |
| RRIRWRPPRLPRPRPRPNQFPRP | 0.0104 |
| RRIRWRPPRLPRPRPRPNQVPRP | 0.0796 |
| RRIRWRPPRLPRPRPRPNSLPRP | -0.123 |
| RRIRWRPPRLPRPRPRPNSQPRP | -0.0188 |
| RRIRWRPPRLPRPRPRPNTDPRP | -0.262 |
| RRIRWRPPRLPRPRPRPNTMPRP | -0.301 |
| RRIRWRPPRLPRPRPRPNVHPRP | 0.0272 |
| RRIRWRPPRLPRPRPRPNVVPRP | -0.144 |
| RRIRWRPPRLPRPRPRPNWGPRP | 0.105 |
| RRIRWRPPRLPRPRPRPNWTPRP | 0.0351 |
| RRIRWRPPRLPRPRPRPNYVPRP | -0.128 |
| RRIRWRPPRLPRPRPRPPCWPRP | 0.347 |
| RRIRWRPPRLPRPRPRPPDGPRP | 0.784 |
| RRIRWRPPRLPRPRPRPPDLPRP | 0.888 |

| Sequence | shrunken log2 fold change |
| --- | --- |
| RRIRWRPPRLPRPRPRPPDVPRP | 0.235 |
| RRIRWRPPRLPRPRPRPPELPRP | 0.38 |
| RRIRWRPPRLPRPRPRPPFCPRP | 0.24 |
| RRIRWRPPRLPRPRPRPPFNPRP | 0.31 |
| RRIRWRPPRLPRPRPRPPFSPRP | 0.222 |
| RRIRWRPPRLPRPRPRPPFVPRP | 0.171 |
| RRIRWRPPRLPRPRPRPPKIPRP | 0.22 |
| RRIRWRPPRLPRPRPRPPKNPRP | 0.757 |
| RRIRWRPPRLPRPRPRPPLAPRP | 1.63 |
| RRIRWRPPRLPRPRPRPPLHPRP | 0.417 |
| RRIRWRPPRLPRPRPRPPMEPRP | -0.131 |
| RRIRWRPPRLPRPRPRPPNCPRP | -0.11 |
| RRIRWRPPRLPRPRPRPPNMPRP | 0.0854 |
| RRIRWRPPRLPRPRPRPPRSPRP | 0.733 |
| RRIRWRPPRLPRPRPRPPTEPRP | 0.597 |
| RRIRWRPPRLPRPRPRPPYYPRP | -0.183 |
| RRIRWRPPRLPRPRPRPQAIPRP | 0.204 |
| RRIRWRPPRLPRPRPRPQAQPRP | 0.00496 |
| RRIRWRPPRLPRPRPRPQARPRP | 0.19 |
| RRIRWRPPRLPRPRPRPQCIPRP | -0.0652 |
| RRIRWRPPRLPRPRPRPQFTPRP | -0.313 |
| RRIRWRPPRLPRPRPRPQGEPRP | 0.29 |
| RRIRWRPPRLPRPRPRPQGGPRP | -0.0626 |
| RRIRWRPPRLPRPRPRPQGQPRP | 0.203 |
| RRIRWRPPRLPRPRPRPQHSPRP | -0.186 |

| Sequence | shrunken log2 fold change |
| --- | --- |
| RRIRWRPPRLPRPRPRPQICPRP | -0.0447 |
| RRIRWRPPRLPRPRPRPQIEPRP | 0.0601 |
| RRIRWRPPRLPRPRPRPQIFPRP | -0.053 |
| RRIRWRPPRLPRPRPRPQKAPRP | 0.123 |
| RRIRWRPPRLPRPRPRPQKKPRP | 0.0854 |
| RRIRWRPPRLPRPRPRPQKWPRP | 0.00891 |
| RRIRWRPPRLPRPRPRPQLMPRP | 0.13 |
| RRIRWRPPRLPRPRPRPQPLPRP | -0.0153 |
| RRIRWRPPRLPRPRPRPQPPPRP | 0.603 |
| RRIRWRPPRLPRPRPRPQQRPRP | -0.102 |
| RRIRWRPPRLPRPRPRPQRTPRP | -0.0113 |
| RRIRWRPPRLPRPRPRPQRWPRP | 0.308 |
| RRIRWRPPRLPRPRPRPQSDPRP | -0.239 |
| RRIRWRPPRLPRPRPRPQSYPRP | -0.0988 |
| RRIRWRPPRLPRPRPRPQTRPRP | 0.122 |
| RRIRWRPPRLPRPRPRPQVEPRP | -0.00667 |
| RRIRWRPPRLPRPRPRPQVYPRP | -0.015 |
| RRIRWRPPRLPRPRPRPQWFPRP | -0.27 |
| RRIRWRPPRLPRPRPRPQWNPRP | -0.156 |
| RRIRWRPPRLPRPRPRPQWVPRP | 0.0902 |
| RRIRWRPPRLPRPRPRPQYMPRP | -0.164 |
| RRIRWRPPRLPRPRPRPQYSPRP | -0.653 |
| RRIRWRPPRLPRPRPRPRAMPRP | 0.363 |
| RRIRWRPPRLPRPRPRPRCSPRP | 0.362 |
| RRIRWRPPRLPRPRPRPRDAPRP | 0.632 |

| Sequence | shrunken log2 fold change |
| --- | --- |
| RRIRWRPPRLPRPRPRPRHKPRP | -0.0379 |
| RRIRWRPPRLPRPRPRPRHSPRP | 0.286 |
| RRIRWRPPRLPRPRPRPRHYPRP | 0.00846 |
| RRIRWRPPRLPRPRPRPRIDPRP | -0.0323 |
| RRIRWRPPRLPRPRPRPRIEPRP | 0.186 |
| RRIRWRPPRLPRPRPRPRKPPRP | 0.188 |
| RRIRWRPPRLPRPRPRPRLKPRP | 0.689 |
| RRIRWRPPRLPRPRPRPRLQPRP | 0.642 |
| RRIRWRPPRLPRPRPRPRLYPRP | 0.245 |
| RRIRWRPPRLPRPRPRPRPEPRP | 0.502 |
| RRIRWRPPRLPRPRPRPRQGPRP | 0.582 |
| RRIRWRPPRLPRPRPRPRQTPRP | 0.0702 |
| RRIRWRPPRLPRPRPRPRRFPRP | 0.269 |
| RRIRWRPPRLPRPRPRPRSLPRP | -0.115 |
| RRIRWRPPRLPRPRPRPRTSPRP | -0.0212 |
| RRIRWRPPRLPRPRPRPRWDPRP | 0.0641 |
| RRIRWRPPRLPRPRPRPRWSPRP | 0.372 |
| RRIRWRPPRLPRPRPRPRYCPRP | -0.139 |
| RRIRWRPPRLPRPRPRPRYQPRP | -0.188 |
| RRIRWRPPRLPRPRPRPRYSPRP | -0.136 |
| RRIRWRPPRLPRPRPRPRYVPRP | -0.147 |
| RRIRWRPPRLPRPRPRPSCMPRP | 0.11 |
| RRIRWRPPRLPRPRPRPSCWPRP | 0.0114 |
| RRIRWRPPRLPRPRPRPSDCPRP | -0.183 |
| RRIRWRPPRLPRPRPRPSDEPRP | -0.117 |

| Sequence | shrunken log2 fold change |
| --- | --- |
| RRIRWRPPRLPRPRPRPSDFPRP | 0.0215 |
| RRIRWRPPRLPRPRPRPSEPPRP | -0.266 |
| RRIRWRPPRLPRPRPRPSETPRP | 0.0208 |
| RRIRWRPPRLPRPRPRPSGAPRP | 0.527 |
| RRIRWRPPRLPRPRPRPSHKPRP | -0.193 |
| RRIRWRPPRLPRPRPRPSHLPRP | -0.517 |
| RRIRWRPPRLPRPRPRPSHNPRP | -0.596 |
| RRIRWRPPRLPRPRPRPSHYPRP | -0.557 |
| RRIRWRPPRLPRPRPRPSKHPRP | -0.499 |
| RRIRWRPPRLPRPRPRPSKLPRP | -0.315 |
| RRIRWRPPRLPRPRPRPSKNPRP | -0.158 |
| RRIRWRPPRLPRPRPRPSKWPRP | -0.327 |
| RRIRWRPPRLPRPRPRPSLPPRP | -0.133 |
| RRIRWRPPRLPRPRPRPSLTPRP | 0.282 |
| RRIRWRPPRLPRPRPRPSNQPRP | -0.561 |
| RRIRWRPPRLPRPRPRPSNWPRP | 0.135 |
| RRIRWRPPRLPRPRPRPSQCPRP | 0.0963 |
| RRIRWRPPRLPRPRPRPSQIPRP | -0.165 |
| RRIRWRPPRLPRPRPRPSRAPRP | 0.397 |
| RRIRWRPPRLPRPRPRPSRVPRP | 0.253 |
| RRIRWRPPRLPRPRPRPSSPPRP | -0.0889 |
| RRIRWRPPRLPRPRPRPSTMPRP | -0.284 |
| RRIRWRPPRLPRPRPRPSTSPRP | -0.302 |
| RRIRWRPPRLPRPRPRPSVVPRP | -0.00267 |
| RRIRWRPPRLPRPRPRPSYRPRP | -0.895 |

| Sequence | shrunken log2 fold change |
| --- | --- |
| RRIRWRPPRLPRPRPRPSYYPRP | -0.292 |
| RRIRWRPPRLPRPRPRPTCHPRP | 0.228 |
| RRIRWRPPRLPRPRPRPTCQPRP | 0.729 |
| RRIRWRPPRLPRPRPRPTCRPRP | 0.0452 |
| RRIRWRPPRLPRPRPRPTDSPRP | -0.195 |
| RRIRWRPPRLPRPRPRPTHNPRP | 0.0181 |
| RRIRWRPPRLPRPRPRPTHPPRP | 0.709 |
| RRIRWRPPRLPRPRPRPTLGPRP | 0.079 |
| RRIRWRPPRLPRPRPRPTMLPRP | 0.101 |
| RRIRWRPPRLPRPRPRPTNAPRP | 0.0747 |
| RRIRWRPPRLPRPRPRPTNDPRP | 0.0116 |
| RRIRWRPPRLPRPRPRPTPYPRP | 0.284 |
| RRIRWRPPRLPRPRPRPTQGPRP | 0.533 |
| RRIRWRPPRLPRPRPRPTQQPRP | -0.0891 |
| RRIRWRPPRLPRPRPRPTRGPRP | 0.329 |
| RRIRWRPPRLPRPRPRPTTYPRP | -0.187 |
| RRIRWRPPRLPRPRPRPTVDPRP | 0.296 |
| RRIRWRPPRLPRPRPRPTVVPRP | 0.134 |
| RRIRWRPPRLPRPRPRPTVYPRP | 0.116 |
| RRIRWRPPRLPRPRPRPTWSPRP | 0.541 |
| RRIRWRPPRLPRPRPRPTWVPRP | 0.688 |
| RRIRWRPPRLPRPRPRPTYAPRP | -0.0208 |
| RRIRWRPPRLPRPRPRPTYQPRP | -0.325 |
| RRIRWRPPRLPRPRPRPVATPRP | 0.991 |
| RRIRWRPPRLPRPRPRPVCCPRP | 0.469 |
